Laboratory results: the supplement of paper PMC7125110
± gives the standard error. Fewer inactive variants are shown than the library holds.

B1: glmS ribozyme (parent)
chain: AUAAAAGCGCCAGAACUACAGAAAUGUAGUUGACGAGGAGGAGGUUUAUCGAAUUUUCGGCGGAUGCCUCCAAA

What was measured:
Conditions in all cases: with glucosamine-6-phosphate
[1] = variants of: B1; assay: self-cleavage kobs at 640 uM GlcN6P; higher = faster cleavage; RNA array
Outline: (§1)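 Glucosamine-6-phosphate in HEPES/KCl/Mg(OAc)2 buffer, at 40 μM to 10 mM, was flowed over barcoded ribozyme variants transcribed in situ by E. coli RNA polymerase on sequenced MiSeq chips. Tracking was through a hybridised Cy3 probe at 37 °C. kobs, kcat and KM came from exponential decay fits and weighted Michaelis–Menten fits of normalised per-tile medians.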

[2] = variants of: B1; assay: self-cleavage kobs at 2500 uM GlcN6P; higher = faster cleavage; RNA array
Outline: as §1

[3] = variants of: B1; assay: self-cleavage kobs at 10000 uM GlcN6P; higher = faster cleavage; RNA array
Outline: as §1

Variant	self-cleavage kobs at 640 uM GlcN6P [1]	self-cleavage kobs at 2500 uM GlcN6P [2]	self-cleavage kobs at 10000 uM GlcN6P [3]
A42U G44U C61G	< 1e-05 s⁻¹	< 1e-05 s⁻¹	
A6G A36C C50G	0.000132 ± 3.4e-05 s⁻¹		
C11G A36C G38U C50A U65G	< 1e-05 s⁻¹	< 1e-05 s⁻¹	< 1e-05 s⁻¹
C58G G62A G63C C71A	5.92e-05 ± 2.4e-05 s⁻¹		
C34G U69G	0.000107 ± 2e-05 s⁻¹	8.27e-05 ± 2.5e-05 s⁻¹	
C34U A52G U54G	< 1e-05 s⁻¹	< 1e-05 s⁻¹	
G13U G29U A52C	< 1e-05 s⁻¹		
A14C A53U C67U	0.000153 ± 4.6e-05 s⁻¹	0.000626 ± 0.0002 s⁻¹	
U46G G51U U56G U69G	0.000445 ± 0.00011 s⁻¹		
U2C G35U C68U	< 1e-05 s⁻¹		
A12C U47C U65C	< 1e-05 s⁻¹		
U46G U57C G60U	< 1e-05 s⁻¹		
C11U A36C G43U C71A	< 1e-05 s⁻¹		
G35C G41A U49A C58G C71U	< 1e-05 s⁻¹		
C16U G37A U54C	0.000373 ± 8.1e-05 s⁻¹	0.000599 ± 0.00013 s⁻¹	0.00176 ± 0.00031 s⁻¹
A14G G35A G43A C61U	< 1e-05 s⁻¹		
G40U G41A A42U U54G G60U C71U	< 1e-05 s⁻¹	< 1e-05 s⁻¹	< 1e-05 s⁻¹
A48G U55C G59C	< 1e-05 s⁻¹	< 1e-05 s⁻¹	
C16G G37A U45A	8.21e-05 ± 2.1e-05 s⁻¹		
C8U U30G U55C	< 1e-05 s⁻¹	< 1e-05 s⁻¹	
A33C G44U C71A	< 1e-05 s⁻¹	< 1e-05 s⁻¹	
C11G U55G G59C	0.00067 ± 0.00021 s⁻¹		

Variant	self-cleavage kobs at 640 uM GlcN6P [1]	self-cleavage kobs at 2500 uM GlcN6P [2]	self-cleavage kobs at 10000 uM GlcN6P [3]
G51C U56G	< 1e-05 s⁻¹	< 1e-05 s⁻¹	< 1e-05 s⁻¹
A36G G41A C61G C71U	< 1e-05 s⁻¹	< 1e-05 s⁻¹	
U30A G38U	< 1e-05 s⁻¹	< 1e-05 s⁻¹	
U30C G63U C68G	9.11e-05 ± 1.9e-05 s⁻¹	5.6e-05 ± 1.4e-05 s⁻¹	
A53U U56A C71U	0.00121 ± 0.00015 s⁻¹	0.00323 ± 0.00064 s⁻¹	
A14C C34U U54C	< 1e-05 s⁻¹	< 1e-05 s⁻¹	< 1e-05 s⁻¹
G37C C50U A53G U56C	< 1e-05 s⁻¹		
G35C G40A G43U	< 1e-05 s⁻¹	< 1e-05 s⁻¹	
A14G U45G C50G C68G	< 1e-05 s⁻¹		
A15C G51A G59C	< 1e-05 s⁻¹	< 1e-05 s⁻¹	
C50G C67G C70U C71A	0.000149 ± 4.5e-05 s⁻¹	0.000157 ± 2.9e-05 s⁻¹	
C50G A53U A64G	< 1e-05 s⁻¹		
G13C U55A U69A	0.00022 ± 7e-05 s⁻¹		
C8G G13C G40A U56A G59U	< 1e-05 s⁻¹		
C11G G60U A64U	< 1e-05 s⁻¹	< 1e-05 s⁻¹	
G7U C10U A52U	< 1e-05 s⁻¹		
C11G G29C G59C	< 1e-05 s⁻¹		
A15G G43U A48U C50U	< 1e-05 s⁻¹		
G9U A36C A39G C70U	< 1e-05 s⁻¹		
C11G G41U C50U	< 1e-05 s⁻¹	< 1e-05 s⁻¹	
G9A C68A U69C	< 1e-05 s⁻¹		
C11U A12G C34A	< 1e-05 s⁻¹		

Variant	self-cleavage kobs at 640 uM GlcN6P [1]	self-cleavage kobs at 2500 uM GlcN6P [2]	self-cleavage kobs at 10000 uM GlcN6P [3]
G29U C34U G40U A42C U55A G66U	< 1e-05 s⁻¹	< 1e-05 s⁻¹	
G13C G41U C71U	< 1e-05 s⁻¹		
G43C U46A A48C	< 1e-05 s⁻¹	< 1e-05 s⁻¹	< 1e-05 s⁻¹
A14U G40C U69C C71U	< 1e-05 s⁻¹		
A15C A36C G41U	< 1e-05 s⁻¹		
G37U A39U G40U A48U C50G C67A	< 1e-05 s⁻¹	< 1e-05 s⁻¹	
C8U C58A U65C	< 1e-05 s⁻¹	< 1e-05 s⁻¹	
U30G G37C G41A A48U A53U C68G C70U	< 1e-05 s⁻¹		
C8U C50A	< 1e-05 s⁻¹	< 1e-05 s⁻¹	< 1e-05 s⁻¹
C11G G44U C50G G62C	< 1e-05 s⁻¹	< 1e-05 s⁻¹	
U30G U45C C71A	3.43e-05 ± 1.1e-05 s⁻¹	8.42e-05 ± 2e-05 s⁻¹	
G37C G40U U46G G63U	< 1e-05 s⁻¹		< 1e-05 s⁻¹
G7C A64C	< 1e-05 s⁻¹		
G7C G59C G66C	< 1e-05 s⁻¹		< 1e-05 s⁻¹
G7U C10U G43U	< 1e-05 s⁻¹		
G51U C67U U69C	5.75e-05 ± 2.5e-05 s⁻¹		
G32U A33U U56G	< 1e-05 s⁻¹		
C16U A36G A39C	< 1e-05 s⁻¹		
G13A A15C G60U	< 1e-05 s⁻¹		
A6C A42U C70G	< 1e-05 s⁻¹	< 1e-05 s⁻¹	
G29U C58A C68A	0.000121 ± 3.2e-05 s⁻¹	3.43e-05 ± 1.5e-05 s⁻¹	
C16A G63U C67U	0.000112 ± 4.7e-05 s⁻¹		

Variant	self-cleavage kobs at 640 uM GlcN6P [1]	self-cleavage kobs at 2500 uM GlcN6P [2]	self-cleavage kobs at 10000 uM GlcN6P [3]
U30A G40U U45A	4.42e-05 ± 2.1e-05 s⁻¹	0.000226 ± 5.7e-05 s⁻¹	
C11A A33G A48C C67U	< 1e-05 s⁻¹	< 1e-05 s⁻¹	
A39G G40U C58G	< 1e-05 s⁻¹		
C8U C16U C71A	< 1e-05 s⁻¹		
A6G A48G C61G	< 1e-05 s⁻¹		
C34A C67A C71U	< 1e-05 s⁻¹		
G7A G9U C68U	< 1e-05 s⁻¹		
G7C C8G G9C C19A C61A	< 1e-05 s⁻¹	< 1e-05 s⁻¹	
C11G U45G C71U	< 1e-05 s⁻¹	< 1e-05 s⁻¹	
A15G C16G C50G U54C	0.00183 ± 0.00059 s⁻¹		
A39G U46C C71U	0.00179 ± 0.00048 s⁻¹		
U30A C71G	0.000371 ± 0.00016 s⁻¹	0.000129 ± 5.8e-05 s⁻¹	0.00032 ± 7.6e-05 s⁻¹
G21U U30A	0.00112 ± 0.00029 s⁻¹	0.000247 ± 0.00012 s⁻¹	0.00354 ± 0.00075 s⁻¹
A14U A15G G35U	< 1e-05 s⁻¹	< 1e-05 s⁻¹	
G9C A33G G35A G63U	< 1e-05 s⁻¹		
G51U C70A	5.2e-05 ± 1.5e-05 s⁻¹		
U31A A33G U49C C58G	< 1e-05 s⁻¹		
G35A G41U U46A	< 1e-05 s⁻¹	< 1e-05 s⁻¹	
U30G G35A A39U U55C	< 1e-05 s⁻¹	< 1e-05 s⁻¹	
G38A A39U U55G U69G	< 1e-05 s⁻¹		
C11U A15U U57G C58U C67U	0.00016 ± 4e-05 s⁻¹	0.000131 ± 4.9e-05 s⁻¹	
A14U C34U G37C G51A U55C	< 1e-05 s⁻¹		

Variant	self-cleavage kobs at 640 uM GlcN6P [1]	self-cleavage kobs at 2500 uM GlcN6P [2]	self-cleavage kobs at 10000 uM GlcN6P [3]
C8G G9C A39C	< 1e-05 s⁻¹	< 1e-05 s⁻¹	
G9A G37C U54G G60U C68U	< 1e-05 s⁻¹	< 1e-05 s⁻¹	
A6G G9C G60C G63A C68U	< 1e-05 s⁻¹		
A6U G40U U65C C68U	< 1e-05 s⁻¹	< 1e-05 s⁻¹	
A12C G66U C70G	7.67e-05 ± 2.5e-05 s⁻¹		
C11A G44A C68A	< 1e-05 s⁻¹	< 1e-05 s⁻¹	
A15G A48G	4.16e-05 ± 1.4e-05 s⁻¹	0.000216 ± 4e-05 s⁻¹	8.59e-05 ± 1.3e-05 s⁻¹
A12G G29C A39G A52C C67A	< 1e-05 s⁻¹		
C8U G63U C68U	< 1e-05 s⁻¹		
C16A G66U C68A	0.0001 ± 3.2e-05 s⁻¹		
G35U G38U C67A	< 1e-05 s⁻¹		
G41A G44U G66A	< 1e-05 s⁻¹	< 1e-05 s⁻¹	
U56C C61U C71G	< 1e-05 s⁻¹		
A15G A48U C50U G60A C68G	0.000775 ± 0.00022 s⁻¹		
A53U U54A U56A C70G	0.000134 ± 3e-05 s⁻¹	8.57e-05 ± 1.9e-05 s⁻¹	
G13C A14C G32U U69C	8.31e-05 ± 2.1e-05 s⁻¹	7.03e-05 ± 2e-05 s⁻¹	
A14U A15G C16A A52U A53U	< 1e-05 s⁻¹		
G38A G44U G62U	< 1e-05 s⁻¹	< 1e-05 s⁻¹	
G41A U47A A52C	< 1e-05 s⁻¹		
A12G U31G U55A C67U	5.14e-05 ± 1.3e-05 s⁻¹	0.00011 ± 1.9e-05 s⁻¹	0.000176 ± 3.2e-05 s⁻¹
A6U C8A A64U	< 1e-05 s⁻¹	< 1e-05 s⁻¹	
C8G A15U U56C	< 1e-05 s⁻¹	< 1e-05 s⁻¹	< 1e-05 s⁻¹

Variant	self-cleavage kobs at 640 uM GlcN6P [1]	self-cleavage kobs at 2500 uM GlcN6P [2]	self-cleavage kobs at 10000 uM GlcN6P [3]
U46G C58A A64U	< 1e-05 s⁻¹	< 1e-05 s⁻¹	
U47G U49A A52U	< 1e-05 s⁻¹		
A6U U69G	0.000103 ± 2.3e-05 s⁻¹	4.72e-05 ± 1.4e-05 s⁻¹	
G13C A14U A42U A64G	< 1e-05 s⁻¹		
G44C C68A U69G	< 1e-05 s⁻¹		
A15G U56A C61G	< 1e-05 s⁻¹		
U31A A52G U69G	7.54e-05 ± 3.6e-05 s⁻¹	7.91e-05 ± 2.3e-05 s⁻¹	
G35A G44A	< 1e-05 s⁻¹	< 1e-05 s⁻¹	< 1e-05 s⁻¹
C16U U30A G44C G63C	< 1e-05 s⁻¹		< 1e-05 s⁻¹
C10U A33C U46C G51C G60C	< 1e-05 s⁻¹	< 1e-05 s⁻¹	
U57C G62C C68G	< 1e-05 s⁻¹		
G9A U55C	< 1e-05 s⁻¹	< 1e-05 s⁻¹	
G37A A64G C67G	< 1e-05 s⁻¹		
C11U A33C U55G C58U	< 1e-05 s⁻¹		
U49C U54A G63U	< 1e-05 s⁻¹	< 1e-05 s⁻¹	
U30A G40A C50U	< 1e-05 s⁻¹	< 1e-05 s⁻¹	
A12G G26U G38A C68G C71A	0.000109 ± 2e-05 s⁻¹	7.22e-05 ± 2.4e-05 s⁻¹	
U56G U57G G66U	< 1e-05 s⁻¹	< 1e-05 s⁻¹	
C34G U46A U49A	< 1e-05 s⁻¹		
C58U G59C C61U C71A	< 1e-05 s⁻¹		
U30C G38U U57C A64G	< 1e-05 s⁻¹		
C11A A33U A52G C68G	0.000157 ± 6.4e-05 s⁻¹		
